Reference: patent EP1410040B1

Columns and labels:
[1] = target: full length STAT6 (human) (UniProt P42226); assay: cell-based or functional assay
[2] = target: GST-STAT6 aa 677-847 protein (human); assay: ELISA: 500 ng GST-STAT6 (677-847) coated, 250 ng His-NCoA-1 added, detected by Penta-His and anti-mouse-HRP; average of three experiments, s.d. 0,036
GST-STAT6 aa 677-847 protein (human), sequence (chain, as listed by the source limits assumed): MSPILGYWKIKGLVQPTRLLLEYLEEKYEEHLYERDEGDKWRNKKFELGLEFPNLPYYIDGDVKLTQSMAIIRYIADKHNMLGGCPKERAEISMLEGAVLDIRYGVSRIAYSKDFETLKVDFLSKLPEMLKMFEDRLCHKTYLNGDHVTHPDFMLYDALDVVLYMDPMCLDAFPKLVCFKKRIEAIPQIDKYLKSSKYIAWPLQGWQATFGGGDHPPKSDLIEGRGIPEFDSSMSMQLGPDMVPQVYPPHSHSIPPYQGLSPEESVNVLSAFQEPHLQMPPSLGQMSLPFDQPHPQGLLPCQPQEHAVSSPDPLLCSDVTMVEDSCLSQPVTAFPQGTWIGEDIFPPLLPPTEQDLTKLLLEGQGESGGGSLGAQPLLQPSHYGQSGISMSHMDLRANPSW

UniProt P42226, sequence (P42226 2-847): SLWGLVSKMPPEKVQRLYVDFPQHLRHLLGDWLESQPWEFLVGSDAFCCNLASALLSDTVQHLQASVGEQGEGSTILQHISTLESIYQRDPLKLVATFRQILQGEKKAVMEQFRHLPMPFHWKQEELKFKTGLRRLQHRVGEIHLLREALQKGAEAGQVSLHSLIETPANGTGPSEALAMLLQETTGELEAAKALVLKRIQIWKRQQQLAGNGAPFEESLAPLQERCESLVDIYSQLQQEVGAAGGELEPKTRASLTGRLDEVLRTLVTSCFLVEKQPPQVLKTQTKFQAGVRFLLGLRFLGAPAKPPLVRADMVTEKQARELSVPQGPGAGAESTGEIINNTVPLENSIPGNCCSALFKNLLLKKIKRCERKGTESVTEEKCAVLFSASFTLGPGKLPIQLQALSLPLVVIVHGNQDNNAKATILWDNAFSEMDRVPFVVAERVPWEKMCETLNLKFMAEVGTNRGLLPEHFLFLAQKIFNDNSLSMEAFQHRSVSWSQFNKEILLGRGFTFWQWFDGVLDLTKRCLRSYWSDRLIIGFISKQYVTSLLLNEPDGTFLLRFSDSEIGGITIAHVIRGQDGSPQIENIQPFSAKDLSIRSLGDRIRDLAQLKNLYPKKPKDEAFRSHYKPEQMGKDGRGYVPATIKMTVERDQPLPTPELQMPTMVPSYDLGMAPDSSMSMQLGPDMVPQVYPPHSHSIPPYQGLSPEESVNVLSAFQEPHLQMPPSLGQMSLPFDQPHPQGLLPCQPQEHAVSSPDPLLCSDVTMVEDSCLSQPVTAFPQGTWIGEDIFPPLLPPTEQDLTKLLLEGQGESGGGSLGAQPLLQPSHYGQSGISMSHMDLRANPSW

“NCoA-1 (nuclear coactivator 1), full length (from UniProt P70365 2-1447)” gave an IL-4 induced luciferase reporter gene expression (multimerized STAT6 response elements) in HepG2 cells [1] of under 3 fold.

B1: His-tagged NCoA-1 aa 212-463 (protein)
chain: MHHHHHHSSGLVPRGSGMKETAAAKFERQHMDSPDLGTDDDDKAMGYLWIQEACQRYEVMQCFTVSQPKSIQEDGEDFQSCLICIARRLPRPPAITGVESFMTKQDTTGKIISIDTSSLRAAGRTGWEDLVRKCIYAFFQPQGREPSYARQLFQEVMTRGTASSPSYRFILNDGTMLSAHTKCKLCYPQSPDMQPFIMGIHIIDREHSGLSPQDDSNSGMSIPRINPSVNPGISPAHGVTRSSTLPPSNNNMVSARVNRQQSSDLNSSSSHTNSSNNQGNFGCSPGNQIVANVALNQGQAGSLEHHHHHH
Work on B1 yielded an Extinction 493 nm [2] of 0.795.
